From patent US20240141364

Assays:
Experiment in all cases: cell_activity
[1] = system: SB03937 ZF10-HDAC4-ecpd-degron (synthetic construct); settings: mCherry increase with 1 uM pomalidomide vs no drug; represses without drug; U87-MG
[2] = system: SB03758 degron-A(EAAAK)3A-ZF10-minKRAB (synthetic construct); settings: mCherry increase with 1 uM pomalidomide vs no drug (release of repression); U87-MG
[3] = system: SB03936 degron-A(EAAAK)3A-HDAC4-ZF10-1 (synthetic construct); settings: mCherry increase with 1 uM pomalidomide vs no drug; represses without drug; U87-MG
Chain of SB03936 degron-A(EAAAK)3A-HDAC4-ZF10-1 (synthetic construct) (chain, as listed by the source): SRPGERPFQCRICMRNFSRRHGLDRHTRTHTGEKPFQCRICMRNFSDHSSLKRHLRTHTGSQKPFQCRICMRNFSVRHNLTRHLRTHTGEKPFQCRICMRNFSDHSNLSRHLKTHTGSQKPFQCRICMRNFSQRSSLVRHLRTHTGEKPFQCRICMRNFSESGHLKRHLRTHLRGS

[4] = system: SB03759 degron-A(EAAAK)3A-ZF10-1-minKRAB (synthetic construct); settings: mCherry increase with 1 uM pomalidomide vs no drug (release of repression); U87-MG; text describes the reporter as SEQ ID NO 56 core promoter with four …
Chain of SB03759 degron-A(EAAAK)3A-ZF10-1-minKRAB (synthetic construct) (chain, as listed by the source): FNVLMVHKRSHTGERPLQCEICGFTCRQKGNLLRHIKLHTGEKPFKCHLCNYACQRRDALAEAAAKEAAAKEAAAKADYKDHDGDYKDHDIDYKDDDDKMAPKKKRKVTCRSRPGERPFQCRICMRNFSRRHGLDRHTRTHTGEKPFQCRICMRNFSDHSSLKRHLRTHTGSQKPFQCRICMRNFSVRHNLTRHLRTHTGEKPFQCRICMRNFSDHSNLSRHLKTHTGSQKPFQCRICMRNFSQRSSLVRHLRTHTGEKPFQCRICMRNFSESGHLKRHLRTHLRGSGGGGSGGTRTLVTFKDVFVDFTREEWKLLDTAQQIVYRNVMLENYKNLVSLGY

Measured: activity

Chain of SB03758 degron-A(EAAAK)3A-ZF10-minKRAB (synthetic construct) (chain, as listed by the source): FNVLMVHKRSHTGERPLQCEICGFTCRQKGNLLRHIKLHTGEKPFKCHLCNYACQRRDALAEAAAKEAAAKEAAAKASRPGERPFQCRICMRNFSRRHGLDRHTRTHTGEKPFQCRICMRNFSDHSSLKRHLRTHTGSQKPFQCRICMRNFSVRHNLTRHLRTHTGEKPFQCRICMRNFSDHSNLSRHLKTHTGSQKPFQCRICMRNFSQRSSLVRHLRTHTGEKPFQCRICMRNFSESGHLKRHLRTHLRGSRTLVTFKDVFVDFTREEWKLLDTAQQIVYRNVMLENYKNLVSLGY

CGGGTTTCGTAACAATCGCATGAGGATTCGCAACGCCTTCGGCGTAGCCGATGTCGCGCTCCCGTCTCAGTAAAGGTCGGCGTAGCCGATGTCGCGCAATCGGACTGCCTTCGTACGGCGTAGCCGATGTCGCGCGTATCAGTCGCCTCGGAACGGCGTAGCCGATGTCGCGCATTCGTAAGAGGCTCACTCTCCCTTACACGGAGTGGATAACTAGTTCTAGAGGGTATATAATGGGGGCCA (double strand) [4xZF10-1 binding sites + core promoter (mCherry reporter)]
> 4 fold: all assays above
